Measurements: IntAct's records for PubMed 21893288

B1: BAR/IMD domain-containing adapter protein 2 (Homo sapiens), Q9UQB8-4 (parent)
chain: MSLSRSEEMHRLTENVYKTIMEQFNPSLRNFIAMGKNYEKALAGVTYAAKGYFDALVKMGELASESQGSKELGDVLFQMAEVHRQIQNQLEEMLKSFHNELLTQLEQKVELDSRYLSAALKKYQTEQRSKGDALDKCQAELKKLRKKSQGSKNPQKYSDKELQYIDAISNKQGELENYVSDGYKTALTEERRRFCFLVEKQCAVAKNSAAYHSKGKELLAQKLPLWQQACADPSKIPERAVQLMQQVASNGATLPSALSASKSNLVISDPIPGAKPLPVPPELAPFVGRMSAQESTPIMNGVTGPDGEDYSPWADRKAAQPKSLSPPQSQSKLSDSYSNTLPVRKSVTPKNSYATTENKTLPRSSSMAAGLERNGRMRVKAIFSHAAGDNSTLLSFKEGDLITLLVPEARDGWHYGESEKTKMRGWFPFSYTRVLDSDGSDRLHMSLQQGKSSSTGNLLDKDDLAIPPPDYGAASRAFPAQTASGFKQRPYSVAVPAFSQGLDDYGARSMSSGSGTLVSTV
B2: Translocated intimin receptor Tir (Escherichia coli O157:H7), Q7DB77 (parent)
chain: MPIGNLGHNPNVNNSIPPAPPLPSQTDGAGGRGQLINSTGPLGSRALFTPVRNSMADSGDNRASDVPGLPVNPMRLAASEITLNDGFEVLHDHGPLDTLNRQIGSSVFRVETQEDGKHIAVGQRNGVETSVVLSDQEYARLQSIDPEGKDKFVFTGGRGGAGHAMVTVASDITEARQRILELLEPKGTGESKGAGESKGVGELRESNSGAENTTETQTSTSTSSLRSDPKLWLALGTVATGLIGLAATGIVQALALTPEPDSPTTTDPDAAASATETATRDQLTKEAFQNPDNQKVNIDELGNAIPSGVLKDDVVANIEEQAKAAGEEAKQQAIENNAQAQKKYDEQQAKRQEELKVSSGAGYGLSGALILGGGIGVAVTAALHRKNQPVEQTTTTTTTTTTTSARTVENKPANNTPAQGNVDTPGSEDTMESRRSSMASTSSTFFDTSSIGTVQNPYADVKTSLHDSQVPTSNSNTSVQNMGNTDSVVYSTIQHPPRDTTDNGARLLGNPSAGIQSTYARLALSGGLRHDMGGLTGGSNSAVNTSNNPPAPGSHRFV

Legend:
tir_eco27 tir, B7UM99 [1] = variants of: B1; details: with tir_eco27 tir
tir_eco57 tir, Q7DB77 [2] = variants of: B1; details: with tir_eco57 tir
tir_eco57 tir, Q7DB77 [3] = variants of: B1; details: with tir_eco57 tir; remark: listed apart in the source
tir_eco27 tir, B7UM99 [4] = variants of: B1; details: with tir_eco27 tir; remark: listed apart in the source
tir_eco57 tir, Q7DB77 [5] = variants of: B1; details: with tir_eco57 tir; remark: listed apart in the source
BAIAP2, Q9UQB8-4 = variants of: B2; details: with BAIAP2, Q9UQB8-4

Variant | effect of a mutation on the interaction (tir_eco27 tir, B7UM99 [1]) | effect of a mutation on the interaction (tir_eco57 tir, Q7DB77 [2]) | effect of a mutation on the interaction (tir_eco57 tir, Q7DB77 [3]) | effect of a mutation on the interaction (tir_eco27 tir, B7UM99 [4]) | effect of a mutation on the interaction (tir_eco57 tir, Q7DB77 [5]) | effect of a mutation on the interaction (BAIAP2, Q9UQB8-4)
K108A;R193S | disrupting interaction | disrupting interaction |  |  |  | 
R193S | disrupting interaction |  | disrupting interaction |  |  | 
L28E | disrupting interaction |  | disrupting interaction |  |  | 
K108A;F196A | disrupting interaction | disrupting interaction |  |  |  | 
F196A | decreasing interaction |  | decreasing interaction | disrupting interaction | disrupting interaction | 
K108A |  |  |  | disrupting interaction | disrupting interaction | 
Y458F |  |  |  |  |  | disrupting interaction
